Measurements as given in the nanobody polyreactivity screen of Harvey et al. (2022).

Assay: yeast display, Sf9 membrane polyspecificity reagent, FACS + sequencing; frameworks hold sequencing errors
How it was run: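 In a synthetic yeast display library (Saccharomyces cerevisiae BJ5465), nanobody expression was induced with galactose for 36–48 hours. FACS gates were set low and high (top ~1%) using anti-HA fluorescence for expression and streptavidin fluorescence for binding of the Sf9 membrane reagent. Each polyreactivity label is drawn from the gate of origin.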

Row | Sequence | polyreactivity (PSR sort gate)
1 | QVQLVESGGGLVQAGGSLRLSCAASGRTFVYNAMGWYRQAPGKERELVAAITTSGASTYYADSVKGRFTISRDNAKNTVYLQMNSLKPEDTAVYYCNAYSRYSYGRTYGYWGQGTQVTVSS | high polyreactivity
2 | QVQLVESGGGLVQAGGSLRLSCAASGRTFVYNAMGWYRQAPGKERELVAGITGSGDSTYYADSVKGRFTISRDNAKNTVYLQMNSLKPEDTAVYYCNQLVEEDYWGQGTQVTVSS | low polyreactivity
3 | QVQLVESGGGLVQAGGSLRLSCAASGRTFVYNAMGWYRQAPGNERELVAAITSGGRTYYADSVKGRFTISRDNAKNTVYLQMNSLQPEDTAVYYCAKRFWFNTYAAHPAGFDYWGQGTQVTVSS | low polyreactivity
4 | QVQLVESGGGLVQAGGSLRLSCAASGRTFVYNAMGWYRQEPGKERELVAAITWNGGSKYYADSVKGRFTISRDNAKITVYLQMNSLKPEDTAVYYCNRDVRYVGPSGFDYWGQGTQVTVSS | high polyreactivity
5 | QVQLVESGGGLVQAGGSLRLSCAASGRTFVYYAMGWYRQAPGKERELVAAITWSGGRTYYADSVKGRFTISRDNAKNTVYLQMNSLKPEDTAVYYCNRDQWPWESGYAYNYWGQGTQVTVSS | low polyreactivity
6 | QVQLVESGGGLVQAGGSLRLSCAASGRTFVYYAMGWYRQAPGTERELVAAITFSGGYTYYADSVKGRFTISRDNAKNTVYLQMNSLKPEDTAVYYCAAQYRYSYPLGDYWGQGTQVTVSS | low polyreactivity
7 | QVQLVESGGGLVQAGGSLRLSCAASGRTFVYYAMGWYSQAPGKERELVAAISSSGGSTSYADSVNGRFTISRDNAKNTVYLQMNSVKPEDTAVYYCAADVSVSGYYYWGQGTQVTVSS | high polyreactivity
8 | QVQLVESGGGLVQAGGSLRLSCAASGRTFVYYAMVWYRQAPGKERELVATISRRGGGTYYADSVKGRFTISRDNAKNTVYLQMNSLKPEDTAVYYCNAKWTSHGTYAEDYWGQGTQVTVSS | high polyreactivity
9 | QVQLVESGGGLVQAGGSLRLSCAASGRTFVYYDMGWYRQAPGKERELVASINWSGGSTYYADSVKGRFTISRDNAKNTVYLQMNSLKPEDTAVYYCAKEEITEWGVDSWGQGTQVTVSS | low polyreactivity
10 | QVQLVESGGGLVQAGGSLRLSCAASGRTFVYYDMGWYRQAPGKERELVASISSGDSTNYADSVKGRFTISRDNAKNTFYLQMNSLKPEDTAVYYCAAQYSWGHYYTFDYWGLGTQVTVSS | low polyreactivity
11 | QVQLVESGGGLVQAGGSLRLSCAASGRTFWDNAMGWYRQAPAKERELVAAITFRGGTTYYADSVKGRFTISRDNAKNTVYIQMNSLKPEDTAVYYCAARNGLYRLYYYWGQGTQVTVSS | high polyreactivity
12 | QVQLVESGGGLVQAGGSLRLSCAASGRTFWEHAMGWYRQAPGKERELVAAISGDSGSTYYADSVKGRFTISRDNANNSVYLQMNSLKPEDTAVYYCAGDSDRDDSYPYYYWGQGTQVTVSS | low polyreactivity
13 | QVQLVESGGGLVQAGGSLRLSCAASGRTFWFYAMGWYRQAPGKERELVASITSGGGTNYADSVKGRFTISRDNAKNTVYLQMNRLKPEDTAVYYCAAARKLDATTYYKFDYWGQVTQVTVSS | high polyreactivity
14 | QVQLVESGGGLVQAGGSLRLSCAASGRTFWGNAMGWYRQAPGKEREFVAGITQSDGSTYYADSVKGRFTISRDNAKNTVYLQMNSLKPEDTAVYYCAATPYSTQGLRPKFDYWGQGTQVTVSS | low polyreactivity
15 | QVQLVESGGGLVQAGGSLRLSCAASGRTFWGYALGWYRQAPGKERELVAAISSGGETTYADSVKGRFTISRDNAKNTVYLQMNSMKPEDTAVYYCAADRWITVYILGADGYDYWGQGTQVTVSS | low polyreactivity
16 | QVQLVESGGGLVQAGGSLRLSCAASGRTFWGYAMGWYRQAPGKERELVAAISWSGTSTYYADSVKGRFTISRDNAKNTVYLQMNSLKPEDTAVYYCARAVNDWRRKYNYWGQGTQVTVSS | high polyreactivity
